The text below walks through data of patent publication US10434074B2, “Peptide and small molecule agonists of EPHA and uses thereof” (CASE WESTERN RESERVE UNIVERSITY, priority 2004, dated 2019).

One experiment deals with Akt. Briefly: Akt activities in PC-3 cells. Format: cell-based, human.
For the next experiment, the system named is DU-145 cells. Briefly: Scattering onto immobilized ligand (SOIL) assay. Format: cell-based, human. The following applies: 48 hours. The procedure: FIGS. 2(A-E) illustrate EphA activation inhibited DU-145 cell migration. (A) Expression of c-Met is elevated in cell lines derived from more malignant prostate cancer. Total cellular proteins were immunoblotted with anti-human c-Met. An anti-tubulin blot was used as a control for protein loading. (B) In a modified Boyden chamber assay, DU-145 cells were placed in the upper chamber and allowed to migrate to the lower chamber containing indicated reagents. After 8 hours, cells were stained with crystal violet and cells remaining in the upper chamber were removed. Top panel: Cells migrated to the undersides of membrane were counted; six high power fields were counted. Results represent means±S.D. Representative fields were shown in the lower panel. (C) Ephrin-A1-Fc inhibits DU-145 cell migration when HGF/SF was uniformly presented in both sides of membranes. The experiment was carried out as described in A. (D) Inhibition of cell scattering by immobilized ephrin-A1 in a SOIL assay (Method). Ephrin-A1-Fc or control Fc was immobilized on 6-well culture dishes. Freshly confluent DU-145 cells on cover slips were transferred to the coated surfaces. Cells were stimulated with HGF/SF to induce migration off the cover slips to immobilized Fc or ephrin-A1-Fc. […] The wound healing was recorded prior to and 12 hours after the addition of Fc, ephrin-A1-Fc (1 μg/ml) and/or HGF/SF (20 ng/ml). […]

Experiment [1] relates to EphA2. Briefly: EphA activation and ERK1/2 in primary keratinocytes. Format: cell-based, mouse. The procedure: (§1) FIGS. 43(A-C) illustrate EphA2 kinase is required for ephrin-A1-induced inhibition of ERK1/2 MAP kinase and growth suppression in primary keratinocytes. A) EphA kinase activation by ephrin-A1 in EphA2^+/+ and EphA2^+/− but not EphA2^−/− keratinocytes. Keratinocytes were isolated from newborn (P1) mice and cultured on matrigel-coated culture plates. They were stimulated with 1.0 μg/ml of ephrin-A1-Fc for 10 min. The unstimulated cells were used as control. EphA receptors including EphA2 were precipitated from the cell lysates using ephrin-A1-Fc, and were subjected to immunoblot analysis with rabbit polyclonal anti-phospho-EphA/B antibody. Membrane was stripped and blotted again for total EphA2. B) Ephrin-A1 stimulation leads to inactivation of ERK1/2 MAPK in EphA2^+/+ and EphA2^+/− but not EphA2^−/− keratinocytes. Total cell lysates were analyzed by immunoblot with the indicated antibodies. The band densities from p-ERK blot were normalized to the corresponding total ERK1 blot. The ratios of p-ERK between ephrin-A1-treated and untreated were shown in the lower panel. C). Ephrin-A1 stimulation inhibits clonal growth of EphA2^+/+ and EphA2^+/− but not EphA2^−/− keratinocytes. Primary keratinocytes were plated on 6-well plates coated with matrigel at 5,000 cells/well, and allowed to grow for 12 days in the presence of Fc (0.5 μg/ml) or ephrin-A1-Fc (1.0 μg/ml).
(§2) To determine cellular mechanisms underlying the increased susceptibility to skin tumorigenesis, primary keratinocytes were isolated and cultured from epidermis of neonatal (P1) mice. They were stimulated with ephrin-A1 fused to the heavy chain of human IgG1 (ephrin-A1-Fc). EphA kinases including EphA2 were precipitated with excess ephrin-A1-Fc, and blotted with antibody raised against phosphorylated dityrosine peptide that is highly conserved in the juxtamembrane region of all Eph kinases. Phosphorylation of this region has been correlated with Eph receptor activation.
(§3) Primary keratinocytes were isolated from neonatal mouse skin as described previously (Caldelari et al., 2000). Briefly, the entire P1 mouse skin was dissected and incubated with 5 U/ml dispase II (Boehringer Mannheim) overnight at 4° C. Epidermal layer was separated from dermal layer using forceps, minced and digested with 0.25% trypsin/0.05 mMEDTA. After neutralizing trypsin by washing with serum-containing medium, cells were filtered through sterile gauze pads, spun down and resuspended in serum-free keratinocytes culture medium (Gibco) containing pituitary extract, 5 ng/ml EGF, 100 U/ml penicillin, 0.1 mg/ml streptomycin, and 0.25 μg/ml amphotericin, and plated on 6-well plates precoated with 50 μg/ml matrigel. Cell stimulation with ephrin-A1-Fc, immunoprecipitation, and immunoblot were carried as described preciously (Miao et al., 2003; Miao et al., 2005).

Experiment [2] concerns the target T1, EphA2 (Mus musculus, UniProt Q03145).
T1 construct: endogenous in cells; host or cells: primary keratinocytes from newborn (P1) mouse epidermis
The experiment is described as above. It is filed as cell-based. On the procedure: as §1, §2, §3

Experiment [3] deals with H125, H1975 and SKMES cells. Briefly: ERK and AKT phosphorylation in non-small cell lung cancer cells. Format: cell-based, human. The conditions noted are these: 2 ìg/ml, 10 and 30 minutes.
Description: (§4) FIGS. 47(A-C) illustrate A) Expression of β-gal in EphA2 KO mouse lung. Frozen sections were fixed and stained with X-gal and followed by counterstaining with nuclear Fast-Red. B) Expression of EphA2 in the lung from wild-type mice. Lung frozen sections were stained with goat polyclonal antibodies that recognize the ectodomain of EphA2 followed by detection with donkey anti-goat IgG conjugated with FITC. C) EphA kinase activation by ephrin-A1 in H125, H1975 and SKMES human non-small cell lung cancer cells. Cells were stimulated with 2 ìg/ml of ephrin-A1-Fc for 10 and 30 minutes.
as §4, with “FIG. 47A illustrates the expression” for “FIGS. 47(A-C) illustrate A) Expression”, “knockout” for “KO”, “FIG. 47B illustrates expression” for “B) Expression”, “FIG. 47C illustrates” for “C)”

T1 sequence (Q03145 26-977): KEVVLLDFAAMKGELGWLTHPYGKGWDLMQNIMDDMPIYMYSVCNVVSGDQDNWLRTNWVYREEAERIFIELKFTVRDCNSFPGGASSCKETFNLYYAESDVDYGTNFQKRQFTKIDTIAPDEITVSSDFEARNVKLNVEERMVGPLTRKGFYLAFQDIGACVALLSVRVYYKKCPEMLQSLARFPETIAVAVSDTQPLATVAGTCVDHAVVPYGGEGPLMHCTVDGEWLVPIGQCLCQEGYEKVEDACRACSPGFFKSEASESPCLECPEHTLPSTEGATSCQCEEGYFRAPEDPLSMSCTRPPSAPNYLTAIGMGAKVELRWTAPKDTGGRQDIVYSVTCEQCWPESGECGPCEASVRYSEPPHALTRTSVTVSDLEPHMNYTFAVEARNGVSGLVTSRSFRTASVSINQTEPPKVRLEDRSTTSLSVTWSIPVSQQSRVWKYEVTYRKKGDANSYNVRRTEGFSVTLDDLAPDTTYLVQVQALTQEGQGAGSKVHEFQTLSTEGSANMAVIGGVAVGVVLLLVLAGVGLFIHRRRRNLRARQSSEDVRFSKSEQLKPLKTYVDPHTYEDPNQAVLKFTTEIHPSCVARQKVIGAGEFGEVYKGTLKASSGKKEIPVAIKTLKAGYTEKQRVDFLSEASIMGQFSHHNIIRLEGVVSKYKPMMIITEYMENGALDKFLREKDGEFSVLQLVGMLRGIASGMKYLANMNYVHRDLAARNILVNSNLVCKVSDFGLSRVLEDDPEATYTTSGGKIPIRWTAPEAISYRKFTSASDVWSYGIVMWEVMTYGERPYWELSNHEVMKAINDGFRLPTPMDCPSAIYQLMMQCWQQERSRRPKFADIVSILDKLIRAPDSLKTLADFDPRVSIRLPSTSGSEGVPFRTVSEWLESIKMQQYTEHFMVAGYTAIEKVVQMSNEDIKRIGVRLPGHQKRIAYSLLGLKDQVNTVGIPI

B1: ephrin-A1-Fc: ephrin-A1 dimerized by fusion to the heavy chain of human IgG1 (protein)
chain: DRHTVFWNSSNPKFRNEDYTIHVQLNDYVDIICPHYEDHSVADAAMEQYILYLVEHEEYQLCQPQSKDQVRWQCNRPSAKHGPEKLSEKFQRFTPFTLGKEFKEGHSYYYISKPIHQHEDRCLRLKVTVSGKITHSPQAHDNPQEKRLAADDPEVRVLHSIGHS
modifications: left off: a dimerising Fc or GST
notes: ephrin-A1 dimerized by fusion to the heavy chain of human IgG1
Take B1: the Akt activities result with Akt is on record as “inhibition of Akt activities”. In addition, the “HGF/SF-induced cell migration off cover slips” value with DU-145 cells is recorded as “significantly reduced”. In addition, the “basal cell migration off cover slips” value in the experiment with DU-145 cells is reported as “reduced basal levels of cell migration off cover slips”. Also, the p-EphA/B signal entry with EphA2 [1] (EphA2-null keratinocytes) was “undetectable”. For the same molecule, the ERK1/2 activities entry in the experiment with EphA2 [1] (EphA2 homozygous deletion) is on record as “completely abolished the inhibitory effects”; with EphA2 [2] (heterozygous keratinocytes), “intermediate response”; with EphA2 [2] (wild type keratinocytes), “significantly attenuated”. Also, the EphA2 activation result with EphA2 [2] (wild type and heterozygous keratinocytes) is “readily activated”. Also, the “ERK and AKT phosphorylation” value in experiment [3] is “inhibits ERK and AKT phosphorylation”.
